Data: paper PMC4146615

How the values were obtained:
[1] = molecular target: T1, SoxR (Streptomyces coelicolor) (UniProt Q9S255); experiment: EMSA; settings: EMSA: 10 mM Tris-HCl pH 8, 75 mM KCl, 0.1 mM DTT, 10% glycerol, 2 mM MgCl2, 0.1 ug poly(dI)-poly(dC), 2 mM dAMP, 30 uL, 6 fmol probe, SoxR 0-20 nM, 15 min …
T1 sequence: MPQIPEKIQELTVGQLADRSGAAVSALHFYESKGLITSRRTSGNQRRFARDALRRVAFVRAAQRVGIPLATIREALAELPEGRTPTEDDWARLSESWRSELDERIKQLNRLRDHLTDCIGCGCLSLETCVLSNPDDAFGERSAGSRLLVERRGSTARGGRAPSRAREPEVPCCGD

[2] = molecular target: T1, SoxR (Streptomyces coelicolor); experiment: competition; settings: EMSA: 10 mM Tris-HCl pH 8, 75 mM KCl, 0.1 mM DTT, 10% glycerol, 2 mM MgCl2, 0.1 ug poly(dI)-poly(dC), 2 mM dAMP, 30 uL, 6 fmol probe, SoxR 0-20 nM, 15 min …

| Substance | K_half [1] | binding [2] | Kd [1] |
| --- | --- | --- | --- |
| GACAGTCGTAGGCGGTTCCGCCCCTCCATACGTCACCCCTTGCCGACCGGCCCGACTCCACCGCGGACGACGGACGAGCCTTGACCTCGACCGGACTTGAGGTTGGAGGCTGGGCGGGATGTCGCCTCCAGTGAAGGGTGCTGCTCATGCATGCGATCCACGTGGCCTCGTTCGGTGCTCCGGACGTGCTGAGCCTGGTC (double strand) [SCO0320ext promoter probe] | binds | binds |  |
| SCO0321 upstream probe |  |  | > 20 nM |
| SCO1177 upstream probe |  |  | > 20 nM |
| ecaD (SCO4266) promoter probe |  |  | 5 nM |
